From patent US20030175273A1 (Kyowa Kirin, published 2003)
Ends that are not written are not given here.

T1: BSA-Compound 1 (human CCR4 extracellular region peptide Compound 1 conjugated with BSA) (human, also: conjugated to BSA through SMCC, site not given here)
T1 construct: the claims speak of positions 13 to 29; ELISA antigen; also called CCR4 partial peptide
T1 peptide: DESIYSNYYLYESIPKPC

T2: human CC chemokine receptor 4 (CCR4) on CCR4/EL-4 cells (human, UniProt P51679 1-360)
T2 construct: also called hCCR4; human CCR4-high-expressing cell
T2 sequence: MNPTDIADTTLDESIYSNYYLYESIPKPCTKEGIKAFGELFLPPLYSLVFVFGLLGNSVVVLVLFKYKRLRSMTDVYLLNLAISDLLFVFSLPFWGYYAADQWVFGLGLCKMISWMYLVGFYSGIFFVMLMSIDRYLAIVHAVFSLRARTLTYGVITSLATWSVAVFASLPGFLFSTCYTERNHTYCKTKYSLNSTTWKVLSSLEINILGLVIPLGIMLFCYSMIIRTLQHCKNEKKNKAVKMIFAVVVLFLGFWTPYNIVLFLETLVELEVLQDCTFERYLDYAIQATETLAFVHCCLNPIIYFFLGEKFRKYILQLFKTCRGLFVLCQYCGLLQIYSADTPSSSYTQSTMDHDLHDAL

T3: biotinylated Compound 1 (biotinylated CCR4 partial peptide) (human, also: biotinylated, site not given here)
T3 construct: Same peptide as in BSA-Compound 1
T3 peptide: DESIYSNYYLYESIPKPC

B1: anti-CCR4 CDR-grafted antibody Ga10LV0 (antibody, human IgG1, V domains shown)
VH: EVQLVESGGDLVQPGRSLRLSCAASGFIFSNYGMSWVRQAPGKGLEWVATISSASTYSYYPDSVKGRFTISRDNAKNSLYLQMNSLRVEDTALYYCARHSDGNFAFGYWGQGTLVTVSS
VL: DIVMTQSPLSLPVTPGEPASISCRSSRNIVHINGDTYLEWYLQKPGQSPQLLIYKVSNRFSGVPDRFSGSGSGTDFTLKISRVEAEDVGVYYCFQGSLLPWTFGQGTKVEIK
notes: CDR alone grafted; Tested as COS-7 supernatant and as purified antibody from YB2/0; also called pKANTEX2160Ga10LV0; pKM2160Ga10LV0
B2: anti-CCR4 CDR-grafted antibody HV1LV1 (antibody, human IgG1, V domains shown)
VH: EVQLVESGGGLVQPGGSLRLSCAASGFIFSNYGMSWVRQAPGKGLEWVSTISSASTYSYYPDSVKGRFTISRDNSKNTLYLQMNSLRAEDTAVYYCARHSDGNFAFGYWGQGTLVTVSS
VL: DVVMTQSPLSLPVTPGEPASISCRSSRNIVHINGDTYLEWYLQKPGQSPQLLIYKVSNRFSGVPDRFSGSGSGTDFTLKISRVEAEDVGVYYCFQGSLLPWTFGQGTKVEIK
notes: Tested as COS-7 culture supernatant only; also called pKM2160HV1LV1
B3: anti-CCR4 CDR-grafted antibody HV1LV3 (antibody, human IgG1, V domains shown)
VH: EVQLVESGGGLVQPGGSLRLSCAASGFIFSNYGMSWVRQAPGKGLEWVSTISSASTYSYYPDSVKGRFTISRDNSKNTLYLQMNSLRAEDTAVYYCARHSDGNFAFGYWGQGTLVTVSS
VL: DVLMTQSPLSLPVTPGEPASISCRSSRNIVHINGDTYLEWYLQKPGQSPQLLIYKVSNRFSGVPDRFSGSGSGTDFTLKISRVEAEDVGVYYCFQGSLLPWTFGQGTKVEIK
notes: Tested as COS-7 culture supernatant only; also called pKM2160HV1LV3
B4: anti-CCR4 CDR-grafted antibody HV0LV2 (antibody, human IgG1, V domains shown)
VH: EVQLVESGGGLVQPGGSLRLSCAASGFTFSNYGMSWVRQAPGKGLEWVSTISSASTYSYYPDSVKGRFTISRDNSKNTLYLQMNSLRAEDTAVYYCARHSDGNFAFGYWGQGTLVTVSS
VL: DILMTQSPLSLPVTPGEPASISCRSSRNIVHINGDTYLEWYLQKPGQSPQLLIYKVSNRFSGVPDRFSGSGSGTDFTLKISRVEAEDVGVYYCFQGSLLPWTFGQGTKVEIK
notes: Tested as COS-7 culture supernatant only; also called pKM2160HV0LV2
B5: anti-CCR4 CDR-grafted antibody HV1LV0 (antibody, human IgG1, V domains shown)
VH: EVQLVESGGGLVQPGGSLRLSCAASGFIFSNYGMSWVRQAPGKGLEWVSTISSASTYSYYPDSVKGRFTISRDNSKNTLYLQMNSLRAEDTAVYYCARHSDGNFAFGYWGQGTLVTVSS
VL: DIVMTQSPLSLPVTPGEPASISCRSSRNIVHINGDTYLEWYLQKPGQSPQLLIYKVSNRFSGVPDRFSGSGSGTDFTLKISRVEAEDVGVYYCFQGSLLPWTFGQGTKVEIK
notes: Tested as COS-7 culture supernatant only; also called pKM2160HV1LV0
B6: anti-CCR4 CDR-grafted antibody HV2LV3 (antibody, human IgG1, V domains shown)
VH: EVQLVESGGGLVQPGGSLRLSCAASGFTFSNYGMSWVRQAPGKGLEWVSTISSASTYSYYPDSVKGRFTISRDNSKNTLYLQMNSLRAEDTAVYYCGRHSDGNFAFGYWGQGTLVTVSS
VL: DVLMTQSPLSLPVTPGEPASISCRSSRNIVHINGDTYLEWYLQKPGQSPQLLIYKVSNRFSGVPDRFSGSGSGTDFTLKISRVEAEDVGVYYCFQGSLLPWTFGQGTKVEIK
notes: Tested as COS-7 culture supernatant only; also called pKM2160HV2LV3
B7: anti-CCR4 CDR-grafted antibody HV1LV2 (antibody, human IgG1, V domains shown)
VH: EVQLVESGGGLVQPGGSLRLSCAASGFIFSNYGMSWVRQAPGKGLEWVSTISSASTYSYYPDSVKGRFTISRDNSKNTLYLQMNSLRAEDTAVYYCARHSDGNFAFGYWGQGTLVTVSS
VL: DILMTQSPLSLPVTPGEPASISCRSSRNIVHINGDTYLEWYLQKPGQSPQLLIYKVSNRFSGVPDRFSGSGSGTDFTLKISRVEAEDVGVYYCFQGSLLPWTFGQGTKVEIK
notes: Tested as COS-7 culture supernatant only; also called pKM2160HV1LV2

Biological target: T1, BSA-Compound 1 (human CCR4 …)
Test: ELISA on BSA-Compound 1, COS-7 culture supernatant
Method: Into a 96 well ELISA plate (manufactured by Greiner), 0.05 μg/ml of the prepared conjugate was dispensed in at 50 μl/well and allowed to stand at 4° C. overnight for adsorption. After washing with PBS, PBS containing 1% BSA (hereinafter referred to as “1% BSA-PBS”) was added thereto at 100 μl/well and allowed to react at room temperature for 1 hour to block the remaining active groups. After washing each well with PBS containing 0.05% Tween 20 (hereinafter referred to as “Tween-PBS”), a culture supernatant of the transformant was added at 50 μl/well and allowed to react at room temperature for 1 hour. After the reaction and subsequent washing of each well with Tween-PBS, a peroxidase-labeled goat anti-human IgG(γ) antibody solution (manufactured by American Qualex) diluted 6,000 folds with 1% BSA-PBS was added as a secondary antibody solution in 50 μl/well portions and allowed to react at room temperature for 1 hour After the reaction and subsequent washing with Tween-PBS, an ABTS substrate solution (a solution prepared by dissolving 0.55 g of […] ammonium in 1 liter of 0.1 M citrate buffer (pH 4.2) and adding 1 μl/ml hydrogen peroxide just before use) was added at 50 μl/well to develop color, and the reaction was stopped 20 minutes thereafter by adding 5% SDS solution at 50 μl/well. Thereafter, absorbance at 415 nm was measured.

binding result	Binder
binds	B1
binds	B2
binds	B3
binds	B4
binds	B5
binds	B6
binds	B7

Biological target: T2, human CC chemokine receptor 4 (CCR4) on …
Test: flow cytometry on CCR4/EL-4 cells, antibody at 10 µg/ml
Method: Into a 96 well plate, 2×10⁵ or more of CCR4/EL-4 cells, CCR4-high-expressing cells obtained in Reference Example 3, were dispensed. An antibody solution was prepared by diluting each of the purified antibodies and a human immunoglobulin (manufactured by Welfide) for preventing nonspecific staining to give concentrations of 10 μg/ml and 3.75 mg/ml, respectively, with a buffer for FACS, and the antibody solution was added at 100 μl/well and allowed to react for 30 minutes in ice. As a negative control, 10 μg/ml of an anti-human IL-5 receptor a chain antibody (WO 97/10354) was used. After washing twice with 200 μl/well of the buffer for FACS, a PE-labeled anti-human IgG antibody (manufactured by Coulter) diluted 100 times was added at 50 μl/well. After the reaction in ice under shading and subsequent washing three times with 200 μl/well of the buffer for FACS, the reaction product was suspended in 500 μl of the buffer for FACS and the fluorescence intensity was measured using a flow cytometer.

binding result	Binder
binds	B1

Biological target: T3, biotinylated Compound 1 (biotinylated …)
Test: BIAcore 2000, biotinylated Compound 1 on sensor tip SA, antibody at 4 µg/ml
Method: In order to measure the binding activity in more detail, the binding activity of various purified antibodies was measured using BIAcore 2000 (manufactured by BIACORE) as follows. In this case, HBS-EP (manufactured by BIACORE) was used as the buffer for diluting samples and for the measurement. First, 5 μl of 0.05 μg/ml solution of Compound 1 as a biotinylated CCR4 partial peptide was added to a sensor tip SA (manufactured by BIACORE) at a flow rate of 5 μl/minute and immobilized on the sensor tip.
To the prepared biotinylated compound 1 -immobilized sensor tip, 20 μl of 4 μg/ml solution of each of the purified antibodies was added at a flow rate of 5 μl/minute, and after completion of the addition, the dissociation reaction was monitored for 4 minutes and then the sensor tip surface was regenerated by adding 5 μl of 10 mM HCl twice. In this way, a binding reaction curve (sensorgram) for Compound 1 was obtained.

binding result	Binder
binds	B1
